Experimental data taken from article PMC10819704, “Regulatory Role of GgaR (YegW) for Glycogen Accumulation in Escherichia coli K-12” (Microorganisms, 2024).

What was measured:
[1] = molecular target: GgaR (YegW) (Escherichia coli, UniProt P0ACM5); assay: gel shift assay: loss of GgaR-DNA complex; format: binding; conditions: 2.0 pmol GgaR, 0.5 pmol fbaB/yegT spacer DNA probe, 10-100 uM ADPG, 37 °C; effector (inducer) releasing the repressor from DNA
[2] = molecular target: T1, GgaR (YegW) (Escherichia coli K-12 W3110) (UniProt P0ACM5); assay: EMSA; conditions: EMSA: binding buffer composition and pH not given; 37 C, 30 min (+30 min with effector); 0.5 pmol probe; 5% PAGE, GelRed stain
T1 sequence: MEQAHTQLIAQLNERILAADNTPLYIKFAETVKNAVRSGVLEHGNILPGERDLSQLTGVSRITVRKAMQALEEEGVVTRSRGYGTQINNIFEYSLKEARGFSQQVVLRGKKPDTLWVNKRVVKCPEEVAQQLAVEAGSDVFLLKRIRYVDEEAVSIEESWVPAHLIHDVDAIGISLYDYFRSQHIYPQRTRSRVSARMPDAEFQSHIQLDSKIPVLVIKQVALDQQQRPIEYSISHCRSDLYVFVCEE

Row | Compound | gel shift assay: loss of GgaR-DNA complex [1] | binding [2]
1 | Nc1ncnc2c1ncn2[C@@H]1O[C@H](COP(=O)(O)OP(=O)(O)O[C@H]2O[C@H](CO)[C@@H](O)[C@H](O)[C@H]2O)[C@@H](O)[C@H]1O [ADPG, ADP-glucose] | After adding increasing concentrations of ADPG, the complex of GgaR and the fbaB/yegT spacer | 
2 | AAATGGATATTAAAGTCATGCTCGGCCTGGATGCGCTGATCCTGCTGCGCGATAAAAACTTCCTCGTCTTTTTCTTCTGTTCATTCCTGTTTGCGATGCCACTAGCGTTCTATTACATCTTTGCCAACGGTTATCTGACCGAAGTTGGCATGAAAAACGCCACCGGCTGGATGACGCTCGGCCAGTTCTCTGAAATCTTCTTTATGCTGGCATTGCCGTTTTTCACTAAACGCTTTGGTATCAAAAAGGTATTATTGCTTGGTCTGGTCACCGCTGCGATCCGCTATGGCTTCTTTAT (double strand) [probe-5] |  | binds more weakly
3 | AATCATAATCCTGGTCGTTACGGGCGAGTTTTTCCATCTTTTGGATGTTTTTTCAGCGTTTTCTGTTGGCTCGATTCATCAGAAAAAATGTTAGCGCGGTCAAGTTTTCACCGCAAAGGTATTTAAAAGGTATTATTAAGTGGTATTGTCATCGCGTACCTTACATTACCTGTCATGAAGGAATTAAAAGATGAAAACAACAGCAAAGCTGTCGTTCATGATGTTTGTTGAATGGTTTATC (double strand) [probe-2] |  | binds
4 | TTTCTGATGAATCGAGCCAACAGAAAACGCTGAAAAAACATCCAAAAGATGGAAAAACTCGCCCGTAACGACCAGGATTATGATTGCCCGCAAAAGGCGGGCCAGGACAATCCATAGCCGATATCCAATCGGAATTTACGGGAGCATAGTAATGACAGATATTGCGCAGTTGCTTGGCAAAGACGCCGACAACCTTTTACAGCACCGTTGTATGACAATTCCTTCTGACCAGCTTTATCTCCCCGGACATGACTACGTAGACCGCGTAATGATTG (double strand) [probe-1] |  | no binding
